Source: patent US20160280780A1 (CORMORANT PHARMACEUTICALS, published 2016)

T1: rh-IL-8 72 aa form, monocyte derived (human, UniProt P10145 28-99)
T1 construct: mature; also called IL-8M; IL-8Mpepretech
T1 sequence (looked up): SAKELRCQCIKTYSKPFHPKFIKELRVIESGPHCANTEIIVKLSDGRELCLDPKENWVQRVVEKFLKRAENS

T2: recombinant human IL-8 (form not stated for this assay) (human, UniProt P10145 28-99, limits assumed)
T2 construct: also called rhIL-8
T2 sequence (looked up): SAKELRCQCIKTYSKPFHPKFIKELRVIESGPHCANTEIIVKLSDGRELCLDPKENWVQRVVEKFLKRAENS

T3: rh-IP-10 (human, UniProt P02778 22-98)
T3 sequence (looked up): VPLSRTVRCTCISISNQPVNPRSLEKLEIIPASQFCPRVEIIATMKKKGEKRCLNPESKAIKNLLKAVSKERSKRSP

T4: recombinant human (rh) GRO-α (human, UniProt P09341 35-107)
T4 sequence (looked up): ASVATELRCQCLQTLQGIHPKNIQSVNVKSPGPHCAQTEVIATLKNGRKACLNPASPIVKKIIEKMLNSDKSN

T5: rh-GRO-β (human, UniProt P19875 35-107)
T5 sequence (looked up): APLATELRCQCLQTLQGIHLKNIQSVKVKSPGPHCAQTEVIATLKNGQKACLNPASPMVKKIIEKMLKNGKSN


Experiments:
[1] = target: T1, rh-IL-8 72 aa form, monocyte derived; assay: cell-based or functional assay
[2] = target: recombinant human IL-8 (form not stated for this assay) (human) (UniProt P10145); assay: competition: varying murine anti-IL-8 antibody against 0.25 nM [125I]-rhIL-8 binding to IL-8 receptors (CXCR1, CXCR2) on human neutrophils, filter plate, gamma counting; x axis printed 'IL-8 (nM)'
[3] = target: T2, recombinant human IL-8 (form not stated …); assay: SPR, BIAcore 3000, IL-8 amine-coupled on CM-5 chip, 25° C.
Description: (§1) Affinity constants for 10F8 Fab were determined and compared with corresponding values of 10F8 IgG1,κ. Whole IgG molecules lead to rebinding effects during the dissociation phase of experimental procedures to determine the affinity constants, thus leading to an apparently lower dissociation rate constant and in turn, much higher affinity constant. To eliminate these artifactual avidity effects, Fab molecules were used in the place of IgG1,κ to determine the affinity and rate constants. A CM-5 chip was used to immobilize IL-8 via amine coupling.

rh-IP-10 = target: T3, rh-IP-10; assay: ELISA, plate coated with 1 µg/mL rh-IP-10, HuMab 10F8 titrated 1:3 from 20 µg/mL, HRP anti-human IgG, A405
Description: (§2) Possible cross-reactivity of HuMab 10F8 clone towards other chemokines was evaluated by ELISA. Briefly, microtiter ELISA plates (Greiner, Germany) were coated overnight at room temperature (RT) with 1 μg/mL of recombinant human (rh) GRO-α, rh-GRO-β, rh-IP-10, rh-IL-8 72 aa form, which is monocyte derived (IL-8M or IL-8Mpepretech) or rh-IL-8 77 aa form (IL-8E), which is endothelial cell derived, 100 μl per well. Plates were washed twice with PBST (phosphate buffered saline supplemented with 0.05% v/v Tween-20 (Fischer Scientific, USA)) and wells were blocked with 100 […] PBSTC (PBST plus 2% v/v chicken serum) for 1 hour, RT. Thereafter, wells were incubated for 1 hour, RT under shaking conditions with HuMab-IL-8 clone 10F8, 20 μg/mL 1:3 diluted in PBSTC. Subsequently, wells were washed thrice with PBST and incubated with either HRP-conjugated rabbit anti-mouse IgG F(ab′)₂ fragments (Jackson; diluted 1:3000 in PBSTC) or HRP-conjugated rabbit anti-human IgG F(ab′)₂ (DAKO, Denmark; diluted 1:2000 in PBSTC) for the detection of mouse or human antibodies, respectively.

[4] = target: T2, recombinant human IL-8 (form not stated …); assay: inhibition of 0.25 nM [125I]-IL-8 binding to human neutrophils (CXCR1 and CXCR2), filter plate assay
Description: (§3) Neutrophils were enriched from heparinized whole blood from normal volunteers. The blood was layered on Ficoll-hypaque and centrifuged at 1500 rpm for 30 minutes. The mononuclear cell layer was removed, and erythrocytes were hypotonically lysed. The resulting neutrophils were resuspended in PBS containing 0.1% BSA and 0.02% Na azide (0.1% PBA) and held on ice. The IL-8 binding assay was performed as previously described (Yang et al, (1999) J. Leukoc. Biol. 66:401-410). Briefly, in a final volume of 150 μl, 4×10⁵ neutrophils were incubated from 1.5-3 hours on ice with 0.25 nM [¹²⁵I] recombinant human IL-8 (Amersham Life Sciences, Piscataway, N.J.) along with varying concentrations of 10F8 (hybridoma-derived), 10F8 (transfectoma-derived), mouse anti-human IL-8 mAb 6712.111 R & D Systems, and control antibody. All incubations were performed in 96 well Multiscreen filter plates (Millipore, Bedford, Mass.). Plates were washed extensively with cold 0.1% PBA, and filters were counted on a Wallac gamma counter. Results are shown in FIGS. 7A and 7B, expressed as means of triplicate or quadruplicates. The inhibition of binding is expressed as percentage of control antibody.
In the experiment shown in FIG. 7B, the IC₅₀s of 10F8 (hybridoma-derived) (10F8 H) and 10F8 (transfectoma-derived) (10F8 T) were 0.19 nM and 0.30 nM, respectively.

[5] = target: T1, rh-IL-8 72 aa form, monocyte derived; assay: ELISA, plate coated with 1 µg/mL rh-IL-8 72 aa form (curve IL-8Mpeprotec), HuMab 10F8 titrated 1:3 from 20 µg/mL, HRP anti-human IgG, A405
Description: as §2

[6] = target: T2, recombinant human IL-8 (form not stated …); assay: competition: varying 10F8 against 0.25 nM [125I]-rhIL-8 binding to IL-8 receptors (CXCR1, CXCR2) on human neutrophils, filter plate, gamma counting; x axis printed 'IL-8 (nM)'
Description: The ability of HuMab 10F8 to inhibit radiolabeled IL-8 binding to IL-8 receptors (CXCR1 and CXCR2) on neutrophils was assessed as follows:
as §3

[7] = target: T2, recombinant human IL-8 (form not stated …); assay: SPR, BIAcore 3000, IL-8 amine-coupled on CM-5 chip, 37° C.
Description: as §1

[8] = target: T2, recombinant human IL-8 (form not stated …); assay: SPR, BIAcore 3000, IL-8 amine-coupled on CM-5 chip, 25° C.; half-life of the complex
Description: as §1

[9] = target: T4, recombinant human (rh) GRO-α; assay: ELISA, plate coated with 1 µg/mL rh-GRO-α, HuMab 10F8 titrated 1:3 from 20 µg/mL, HRP anti-human IgG, A405
Description: as §2

[10] = target: T2, recombinant human IL-8 (form not stated …); assay: SPR, BIAcore 3000, IL-8 amine-coupled on CM-5 chip, 37° C.; half-life of the complex
Description: as §1

[11] = target: T1, rh-IL-8 72 aa form, monocyte derived; assay: ELISA, plate coated with 1 µg/mL rh-IL-8 72 aa form (curve IL-8M), HuMab 10F8 titrated 1:3 from 20 µg/mL, HRP anti-human IgG, A405
Description: as §2

rh-GRO-β = target: T5, rh-GRO-β; assay: ELISA, plate coated with 1 µg/mL rh-GRO-β, HuMab 10F8 titrated 1:3 from 20 µg/mL, HRP anti-human IgG, A405
Description: as §2

| Molecule | Kd [3] [nM] | koff [3] [s⁻¹] | kon [3] [M⁻¹ s⁻¹] | IC50 [4] [nM] | Kd [7] [nM] | koff [7] [s⁻¹] | kon [7] [M⁻¹ s⁻¹] | Half-life (1n (2/k_off hrs)) [8] [h] | Half-life (1n (2/k_off hrs)) [10] [h] | further results |
| --- | --- | --- | --- | --- | --- | --- | --- | --- | --- | --- |
| irrelevant human isotype control antibody (Example 8) |  |  |  |  |  |  |  |  |  | expression level of CD11b on IL-8 stimulated PMN (MFI) [1]: 2400 MFI; expression of CD62L on IL-8 stimulated PMN (MFI) [1]: 150 MFI |
| mouse anti-human IL-8 mAb 6712.111 (R & D Systems) (antibody) |  |  |  |  |  |  |  |  |  | IC50 (read off the curve) [2]: 0.5 nM |
| HuMab 10F8 (hybridoma-derived), human monoclonal IgG1,κ antibody (antibody, V domains shown, Purified from hybridoma culture supernatant by Protein A; also called HuMab-IL-8 clone 10F8; HuMab-IL-8 (10F8)) VH: QVQLVESGGGVVQPGRSLRLSCTASGFTFSHYGMYWVRQAPGKGLEWVAVIWYDGSYEYNEDSVKGRFTISRDNSKNTLYLQMNSLRAEDTAVYYCARDRVGLFDYWGQGTLVTVSS VL: EIVLTQSPGTLSLSPGERATLSCRASQSISSSYLAWYQQKPGQAPRLLIYGPSSRATGIPDRFSGSGSGTDFTLTISRLEPEDFAVYYCQQYAGSLTFGPGTKVDIK | 0.01 | 2.1e-06 | 231000 | 0.19 | 0.02 | 5.4e-06 | 275000 | 90.4 | 38.2 | binding result (rh-IP-10): no binding (tested: 20 µg/ml); EC50 (read off the curve) [5]: ~0.2 µg/mL; IC50 (read off the curve) [6]: ~0.2 nM; binding result [9]: no binding (tested: 20 µg/ml); EC50 (read off the curve) [11]: ~0.4 µg/mL; binding result (rh-GRO-β): no binding (tested: 20 µg/ml) |
| 10F8 Fab (Fab fragment prepared from HuMab 10F8 IgG) (Fab, V domains shown) VH: QVQLVESGGGVVQPGRSLRLSCTASGFTFSHYGMYWVRQAPGKGLEWVAVIWYDGSYEYNEDSVKGRFTISRDNSKNTLYLQMNSLRAEDTAVYYCARDRVGLFDYWGQGTLVTVSS VL: EIVLTQSPGTLSLSPGERATLSCRASQSISSSYLAWYQQKPGQAPRLLIYGPSSRATGIPDRFSGSGSGTDFTLTISRLEPEDFAVYYCQQYAGSLTFGPGTKVDIK | 0.194 | 1.96e-05 | 101000 |  | 0.372 | 3.94e-05 | 106000 | 8.3 | 4.9 |  |
| HuMab 10F8 (transfectoma-derived), recombinant 10F8 produced from CHO cells (antibody, V domains shown) VH: QVQLVESGGGVVQPGRSLRLSCTASGFTFSHYGMYWVRQAPGKGLEWVAVIWYDGSYEYNEDSVKGRFTISRDNSKNTLYLQMNSLRAEDTAVYYCARDRVGLFDYWGQGTLVTVSS VL: EIVLTQSPGTLSLSPGERATLSCRASQSISSSYLAWYQQKPGQAPRLLIYGPSSRATGIPDRFSGSGSGTDFTLTISRLEPEDFAVYYCQQYAGSLTFGPGTKVDIK |  |  |  | 0.3 |  |  |  |  |  |  |
